Experimental data: patent publication US9845340B2, “Peptides that specifically bind HGF receptor (cMet) and uses thereof” (Dyax Corp., priority 2003, dated 2017)

Experiments:
cMet-Fc fusion protein = cMet-Fc fusion protein (Homo sapiens, UniProt P08581); assay: Protein phage ELISA: peptide-displaying phage binding to soluble cMet-Fc versus TRAIL-Fc; conditions: phage isolate; cMet-Fc vs. TRAIL-Fc
Summary of the method: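 Phage displaying selected peptides were incubated 2 h at room temperature on wells coated with 0.5 μg/mL cMet-Fc, with TRAIL-Fc coating as the unrelated-Fc specificity control.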

[1] = molecular target: T1, 3T3 cells that over-express human cMet (Homo sapiens, UniProt P08581); assay: Whole cell ELISA of peptide-displaying phage; assay type: cell-based; conditions: phage isolate; 3T3 cells expressing human cMet vs. non-expressing 3T3 cells
T1 construct: expressed in transfected cells; host or cells: 3T3 cells
T1 sequence (P08581 25-1390): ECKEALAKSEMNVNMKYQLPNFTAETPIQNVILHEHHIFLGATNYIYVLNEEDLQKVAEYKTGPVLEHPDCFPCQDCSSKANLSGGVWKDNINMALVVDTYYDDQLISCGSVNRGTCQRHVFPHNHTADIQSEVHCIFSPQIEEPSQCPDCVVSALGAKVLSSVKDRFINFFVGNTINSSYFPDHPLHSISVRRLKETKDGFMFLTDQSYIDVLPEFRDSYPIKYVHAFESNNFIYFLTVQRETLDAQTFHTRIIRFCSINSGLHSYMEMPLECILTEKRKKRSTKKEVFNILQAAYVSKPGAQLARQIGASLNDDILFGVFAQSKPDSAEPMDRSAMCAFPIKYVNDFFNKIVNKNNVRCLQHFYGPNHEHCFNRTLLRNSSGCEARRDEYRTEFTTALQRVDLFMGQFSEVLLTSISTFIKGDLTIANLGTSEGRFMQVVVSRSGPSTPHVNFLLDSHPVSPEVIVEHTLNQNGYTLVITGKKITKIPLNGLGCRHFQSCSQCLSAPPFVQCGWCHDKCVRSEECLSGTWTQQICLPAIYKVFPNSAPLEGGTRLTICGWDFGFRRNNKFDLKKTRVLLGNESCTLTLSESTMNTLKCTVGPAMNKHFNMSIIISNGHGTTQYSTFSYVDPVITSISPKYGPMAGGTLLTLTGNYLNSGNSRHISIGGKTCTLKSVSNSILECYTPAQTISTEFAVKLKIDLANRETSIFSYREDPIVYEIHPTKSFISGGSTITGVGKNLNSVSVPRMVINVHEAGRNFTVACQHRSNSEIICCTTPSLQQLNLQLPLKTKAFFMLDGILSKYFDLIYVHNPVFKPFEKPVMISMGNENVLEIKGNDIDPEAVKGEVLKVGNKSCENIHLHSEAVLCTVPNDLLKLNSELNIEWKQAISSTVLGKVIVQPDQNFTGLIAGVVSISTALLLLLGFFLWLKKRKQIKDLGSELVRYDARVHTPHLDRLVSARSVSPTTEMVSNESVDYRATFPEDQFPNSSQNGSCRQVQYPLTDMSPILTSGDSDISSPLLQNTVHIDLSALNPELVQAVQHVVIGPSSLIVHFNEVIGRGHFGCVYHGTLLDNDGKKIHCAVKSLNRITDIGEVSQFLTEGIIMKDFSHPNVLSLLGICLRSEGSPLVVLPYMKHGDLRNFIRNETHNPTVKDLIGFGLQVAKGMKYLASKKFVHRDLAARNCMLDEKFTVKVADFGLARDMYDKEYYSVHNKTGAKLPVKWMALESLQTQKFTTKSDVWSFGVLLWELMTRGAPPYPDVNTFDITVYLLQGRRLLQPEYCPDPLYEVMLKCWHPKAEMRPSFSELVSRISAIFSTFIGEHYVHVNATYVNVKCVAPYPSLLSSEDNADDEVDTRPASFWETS
Summary of the method: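 Phage displaying peptides, pre-blocked 1 h at 37 °C, incubated 1 h at RT on glutaraldehyde-fixed (0.1%, 12 min, 37 °C) cMet-overexpressing 3T3 cells (10^5 per well). Binding read out by HRP anti-M13 antibody after PBST washing.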

Chain of cMet-Fc fusion protein (P08581 25-307 limits assumed): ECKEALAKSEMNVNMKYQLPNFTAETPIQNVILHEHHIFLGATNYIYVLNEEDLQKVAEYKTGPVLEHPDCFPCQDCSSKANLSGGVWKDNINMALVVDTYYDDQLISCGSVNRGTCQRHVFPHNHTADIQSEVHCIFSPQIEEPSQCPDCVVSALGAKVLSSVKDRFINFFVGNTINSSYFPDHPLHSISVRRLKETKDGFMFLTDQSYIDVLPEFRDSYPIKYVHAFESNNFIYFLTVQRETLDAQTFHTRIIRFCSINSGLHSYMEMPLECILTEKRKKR
Chain of cMet-Fc fusion protein (P08581 with tags, fused parts or gaps limits assumed): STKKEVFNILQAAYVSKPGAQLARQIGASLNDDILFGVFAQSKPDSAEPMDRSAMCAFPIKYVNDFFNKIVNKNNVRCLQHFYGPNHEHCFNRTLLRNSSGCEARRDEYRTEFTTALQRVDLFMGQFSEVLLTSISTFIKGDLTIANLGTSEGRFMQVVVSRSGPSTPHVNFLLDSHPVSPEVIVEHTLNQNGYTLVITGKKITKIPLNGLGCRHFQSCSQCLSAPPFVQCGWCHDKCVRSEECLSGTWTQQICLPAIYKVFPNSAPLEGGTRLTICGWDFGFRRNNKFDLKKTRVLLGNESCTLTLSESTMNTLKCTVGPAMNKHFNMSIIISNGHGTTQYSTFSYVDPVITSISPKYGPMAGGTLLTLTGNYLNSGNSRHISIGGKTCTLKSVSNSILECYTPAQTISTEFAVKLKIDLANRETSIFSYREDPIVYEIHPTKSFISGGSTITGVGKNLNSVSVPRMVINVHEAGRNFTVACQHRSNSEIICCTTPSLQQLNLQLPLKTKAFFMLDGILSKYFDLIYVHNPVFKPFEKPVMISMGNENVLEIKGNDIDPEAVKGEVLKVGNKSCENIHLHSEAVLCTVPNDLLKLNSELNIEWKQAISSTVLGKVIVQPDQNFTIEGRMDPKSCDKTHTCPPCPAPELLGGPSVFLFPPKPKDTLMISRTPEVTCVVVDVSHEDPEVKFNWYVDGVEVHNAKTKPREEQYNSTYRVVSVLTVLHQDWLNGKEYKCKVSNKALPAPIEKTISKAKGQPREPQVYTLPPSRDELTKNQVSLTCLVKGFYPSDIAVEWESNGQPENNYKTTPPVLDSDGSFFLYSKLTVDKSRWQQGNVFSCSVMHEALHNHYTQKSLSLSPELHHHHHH

| Compound | Protein ELISA (cMet-Fc fusion protein) | WC ELISA [1] |
| --- | --- | --- |
| AGPLFCFEWPSLCHWGGT (Synthetically generated cMet-binding peptide sequence) [SEQ ID NO: 033] | 3.8 fold over background | 1.43 fold over background |
| CSCC[C@H](NC(=O)[C@H](Cc1ccccc1)NC(=O)[C@H](CCC(N)=O)NC(=O)[C@@H](NC(=O)[C@@H]1CCCN1C(=O)[C@H](CCSC)NC(=O)[C@H](Cc1c[nH]c2ccccc12)NC(=O)[C@@H](NC(=O)[C@H](CC(=O)O)NC(=O)[C@H](CCSC)NC(=O)[C@H](CCC(N)=O)NC(=O)[C@H](CCCNC(=N)N)NC(=O)[C@H](CCC(N)=O)NC(=O)[C@@H](NC(=O)[C@H](CO)NC(=O)[C@H](Cc1c[nH]cn1)NC(=O)[C@H](CCC(N)=O)NC(=O)[C@H](C)NC(C)=O)C(C)C)C(C)C)C(C)C)C(=O)N[C@@H](C)C(=O)NCC(=O)N[C@@H](Cc1ccccc1)C(=O)N[C@H](C(=O)NCC(=O)NCC(=O)NCC(=O)N[C@@H](CCCCNC(=O)c1ccc2c(c1)C(=O)OC21c2ccc(O)cc2Oc2cc(O)ccc21)C(N)=O)[C@@H](C)O [SEQ ID NO: 467] | 3.9 fold over background | 1.30 fold over background |
| AGFVNCKGPPTFECILTGT (Synthetically generated cMet-binding peptide sequence) [SEQ ID NO: 057] | 12.3 fold over background | 1.23 fold over background |
| AQSDHDHAHWGVKHWPFRRYQ (Synthetically generated cMet-binding peptide sequence) [SEQ ID NO: 482] | 3.1 fold over background | 1.20 fold over background |
| GSFILCWWTFCDTNAP (Synthetically generated cMet-binding peptide sequence) [SEQ ID NO: 007] | 3.4 fold over background | 1.30 fold over background |
| GSSQICAVYLDDTHNCERHAP (Synthetically generated cMet-binding peptide sequence) [SEQ ID NO: 373] | 4.0 fold over background | 1.30 fold over background |
| AQFSGLVMYGRTHEVQWTFGSM (Synthetically generated cMet-binding peptide sequence) [SEQ ID NO: 477] | 3.5 fold over background | 1.30 fold over background |
| GDLLVCKFDDKFWTETCEWADP (Synthetically generated cMet-binding peptide sequence) [SEQ ID NO: 392] | 23.7 fold over background | 1.47 fold over background |
| AGQMWCAEKNSKCYQWGT (Synthetically generated cMet-binding peptide sequence) [SEQ ID NO: 030] | 3.2 fold over background | 1.27 fold over background |

Other lines, results leading:

| Protein ELISA (cMet-Fc fusion protein) | WC ELISA [1] | Compound |
| --- | --- | --- |
| 19.5 fold over background | 1.23 fold over background | AGPWKCTGPPTFSCIQFGT (Synthetically generated cMet-binding peptide sequence) [SEQ ID NO: 090] |
| 3.6 fold over background | 1.43 fold over background | AGTIRCNLAMMVCMFEGT (Synthetically generated cMet-binding peptide sequence) [SEQ ID NO: 028] |
| 3.8 fold over background | 1.27 fold over background | GSLIICWWSWCDKQAP (Synthetically generated cMet-binding peptide sequence) [SEQ ID NO: 009] |
| 5.6 fold over background | 1.27 fold over background | AQFPLEFDVPNFSYHWLVSFNP (Synthetically generated cMet-binding peptide sequence) [SEQ ID NO: 460] |
| 3.7 fold over background | 1.43 fold over background | GSAGWCYTMNYVDQLCTYMAP (Synthetically generated cMet-binding peptide sequence) [SEQ ID NO: 387] |
| 3.0 fold over background | 1.37 fold over background | GSDMNCTVLAQDQIFCFREAP (Synthetically generated cMet-binding peptide sequence) [SEQ ID NO: 386] |
| 4.4 fold over background | 1.23 fold over background | CC[C@H](C)[C@H](NC(=O)[C@H](CCC(N)=O)NC(=O)[C@H](CCCNC(=N)N)NC(=O)CNC(=O)[C@H](CO)NC(=O)[C@H](CC(=O)O)NC(=O)[C@H](CC(=O)O)NC(=O)[C@@H](NC(=O)[C@@H]1CCCN1C(=O)[C@H](Cc1ccccc1)NC(=O)[C@@H](NC(=O)[C@H](Cc1ccc(O)cc1)NC(=O)[C@@H]1CCCN1C(=O)[C@H](CO)NC(=O)[C@H](CCC(N)=O)NC(=O)[C@H](C)NC(C)=O)[C@@H](C)CC)[C@@H](C)CC)C(=O)N[C@@H](Cc1ccccc1)C(=O)N[C@H](C(=O)N[C@H](C(=O)N[C@@H](CCC(N)=O)C(=O)N[C@@H](Cc1c[nH]c2ccccc12)C(=O)NCC(=O)NCC(=O)NCC(=O)NCC(=O)N[C@@H](CCCCNC(=O)c1ccc2c(c1)C(=O)OC21c2ccc(O)cc2Oc2cc(O)ccc21)C(N)=O)[C@@H](C)CC)C(C)C [SEQ ID NO: 463] |
| 3.9 fold over background | 1.23 fold over background | AQQWMFQIHQSMAWPYEWIDSY (Synthetically generated cMet-binding peptide sequence) [SEQ ID NO: 494] |
| 4.3 fold over background | 1.10 fold over background | CC[C@H](C)[C@H](NC(=O)CNC(=O)[C@H](CCC(N)=O)NC(=O)[C@@H](NC(=O)[C@H](CCC(N)=O)NC(=O)[C@H](C)NC(C)=O)[C@@H](C)CC)C(=O)N[C@@H](CCC(N)=O)C(=O)N[C@@H](CCCCN)C(=O)N[C@H](C(=O)N[C@@H](CCC(=O)O)C(=O)N[C@@H](CCC(N)=O)C(=O)NCC(=O)N[C@@H](CCC(=O)O)C(=O)N[C@@H](Cc1ccccc1)C(=O)N[C@@H](Cc1ccc(O)cc1)C(=O)N[C@@H](Cc1c[nH]c2ccccc12)C(=O)N[C@@H](Cc1ccccc1)C(=O)N[C@@H](CC(N)=O)C(=O)N[C@@H](Cc1c[nH]c2ccccc12)C(=O)N[C@@H](Cc1ccccc1)C(=O)N1CCC[C@H]1C(=O)N[C@@H](C)C(=O)NCC(=O)NCC(=O)NCC(=O)N[C@@H](CCCCNC(=O)c1ccc2c(c1)C(=O)OC21c2ccc(O)cc2Oc2cc(O)ccc21)C(N)=O)[C@@H](C)O [SEQ ID NO: 450] |
| 3.7 fold over background | 1.80 fold over background | CC[C@H](C)[C@H](NC(=O)CNC(=O)[C@H](Cc1ccccc1)NC(=O)[C@H](Cc1c[nH]c2ccccc12)NC(=O)[C@H](CO)NC(=O)CNC(=O)[C@H](Cc1c[nH]c2ccccc12)NC(=O)[C@H](Cc1ccccc1)NC(=O)CNC(=O)[C@H](CC(=O)O)NC(=O)[C@@H](NC(=O)[C@H](Cc1ccccc1)NC(=O)[C@H](Cc1ccc(O)cc1)NC(=O)[C@H](CCC(=O)O)NC(=O)[C@H](CCCNC(=N)N)NC(=O)[C@H](CCC(=O)O)NC(=O)[C@H](Cc1c[nH]c2ccccc12)NC(=O)[C@H](CCC(=O)O)NC(=O)[C@H](CCC(N)=O)NC(=O)[C@H](C)NC(C)=O)C(C)C)C(=O)N1CCC[C@H]1C(=O)N[C@@H](Cc1c[nH]cn1)C(=O)NCC(=O)NCC(=O)NCC(=O)N[C@@H](CCCCNC(=O)c1ccc2c(c1)C(=O)OC21c2ccc(O)cc2Oc2cc(O)ccc21)C(N)=O [SEQ ID NO: 472] |
